Holding throughout (settings): protein: recombinant; tags: His6-GST removed with 3C protease; label: DY681
For series [1], the target named is T1, SALL4 ZFC4 R900W (Mus musculus, UniProt Q8BX22 870-940, R900W).
T1 sequence: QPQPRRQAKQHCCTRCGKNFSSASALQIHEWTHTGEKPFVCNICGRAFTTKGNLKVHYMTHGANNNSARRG
The series is described as follows: EMSA; apparent; poly(dI-dC); EMSA: 68.1 nM DY681-dsDNA, 20 mM HEPES pH 7.5, 150 mM K acetate, 5 mM Mg acetate, 10 ng/ul poly(dI-dC), 30 min on ice; 4% native PAGE, 0.5x TBE, 4 C. On the technique in general: In EMSA bound probe runs differently from free probe, usually more slowly.

The target of series [2] is T2, SALL4 ZFC4 I897S (Mus musculus, UniProt Q8BX22 870-940, I897S).
T2 sequence: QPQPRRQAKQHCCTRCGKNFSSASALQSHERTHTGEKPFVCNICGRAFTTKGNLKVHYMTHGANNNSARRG
The series is described as above.

The target of series [3] is T3, SALL4 ZFC4 V925S (Mus musculus, UniProt Q8BX22 870-940, V925S).
T3 sequence: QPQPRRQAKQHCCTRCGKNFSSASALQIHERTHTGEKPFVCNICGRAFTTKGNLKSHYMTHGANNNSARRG
Described as above.

Series [4] concerns the target T4, SALL4 ZFC4 I897S+V925S (Mus musculus, UniProt Q8BX22 870-940, I897S;V925S).
T4 sequence: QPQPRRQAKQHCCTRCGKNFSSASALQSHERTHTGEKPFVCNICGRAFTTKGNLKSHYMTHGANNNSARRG
Description: EMSA; apparent; text gives 5.0; poly(dI-dC); EMSA: 68.1 nM DY681-dsDNA, 20 mM HEPES pH 7.5, 150 mM K acetate, 5 mM Mg acetate, 10 ng/ul poly(dI-dC), 30 min on ice; 4% native PAGE, 0.5x TBE, 4 C.

B1: EMSA AT-rich probe (dsDNA)
DNA 1: AAAAAATATTAAAAA
DNA 2: TTTTTAATATTTTTT
Turning to B1, the Kd is 23 µM in series [1], 4.8 µM in series [2], 0.91 µM in series [3] and 5.08 µM in series [4].

Values taken from paper PMC9838217, “Structure of SALL4 zinc finger domain reveals link between AT-rich DNA binding and Okihiro syndrome”.
